Measurements as given in patent US20260070940A1 (Hoffmann-La Roche, published 2026).
Changes are numbered by the printed parent chain. Where “and” joins values, the source holds several entries; their conditions need not be identical. Identical values can stand only once. Blank lines part the entries; values can stand above or below the binder they belong to.

Legend:
[1] = biological target: T1, recombinant human LAG3 Fc Chimera Protein (R&D Systems, 2319-L3) (human, UniProt P18627 23-450); test: SPR, captured antibody, LAG3 Fc analyte
T1 construct: Bought
T1 sequence (looked up): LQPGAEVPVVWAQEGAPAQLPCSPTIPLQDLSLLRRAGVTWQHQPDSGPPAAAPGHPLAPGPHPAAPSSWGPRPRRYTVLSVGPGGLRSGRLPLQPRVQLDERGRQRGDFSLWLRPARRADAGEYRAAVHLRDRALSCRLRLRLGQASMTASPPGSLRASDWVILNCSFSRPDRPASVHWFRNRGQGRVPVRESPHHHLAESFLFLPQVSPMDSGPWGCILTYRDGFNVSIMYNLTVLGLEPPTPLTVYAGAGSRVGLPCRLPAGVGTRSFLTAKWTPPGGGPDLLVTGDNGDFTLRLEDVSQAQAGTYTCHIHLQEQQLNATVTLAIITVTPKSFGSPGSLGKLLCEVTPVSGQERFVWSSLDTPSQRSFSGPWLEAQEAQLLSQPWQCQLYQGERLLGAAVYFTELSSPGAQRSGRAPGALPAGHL

[2] = biological target: T2, soluble human Lag3-IgG1-Fc with biotinylated C-terminal Avi-tag (human, biotin on the Avi-tag); test: A375 MHCII competition ELISA
T2 construct: Lag3 ECD, IEGRMD linker, IgG1 Fc, Avi-tag; also called LAG3-Fc-avi; biotinylated LAG3-Fc

[3] = biological target: T2, soluble human Lag3-IgG1-Fc with …; test: A375 MHCII competition ELISA, 3 ug/ml
[4] = biological target: T1, recombinant human LAG3 Fc Chimera …; test: ELISA, coated LAG3 Fc
[5] = biological target: T3, human LAG3 on recombinant CHO cells (human, UniProt P18627 23-525); test: cell ELISA, CHO-LAG3
T3 construct: whole, on cells; also called Lag3 cells
T3 sequence (looked up): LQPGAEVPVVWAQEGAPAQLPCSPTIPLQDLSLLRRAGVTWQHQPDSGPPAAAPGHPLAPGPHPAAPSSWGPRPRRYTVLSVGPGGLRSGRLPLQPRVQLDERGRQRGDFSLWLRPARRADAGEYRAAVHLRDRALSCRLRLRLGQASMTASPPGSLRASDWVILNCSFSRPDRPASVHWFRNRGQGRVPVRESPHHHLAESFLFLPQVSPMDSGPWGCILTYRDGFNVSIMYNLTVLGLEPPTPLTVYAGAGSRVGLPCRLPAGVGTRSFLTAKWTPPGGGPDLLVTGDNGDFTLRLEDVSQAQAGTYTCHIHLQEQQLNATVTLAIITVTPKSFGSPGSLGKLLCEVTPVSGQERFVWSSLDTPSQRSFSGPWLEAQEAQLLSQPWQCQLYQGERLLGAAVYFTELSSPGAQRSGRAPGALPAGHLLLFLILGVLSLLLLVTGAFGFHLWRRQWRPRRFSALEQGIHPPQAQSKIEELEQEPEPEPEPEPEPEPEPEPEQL

[6] = biological target: T4, murine LAG3-Fc antigen (R&D Systems, 3328-L3-050) (murine, UniProt Q61790 24-442); test: ELISA, murine LAG3-Fc
T4 construct: Bought
T4 sequence (looked up): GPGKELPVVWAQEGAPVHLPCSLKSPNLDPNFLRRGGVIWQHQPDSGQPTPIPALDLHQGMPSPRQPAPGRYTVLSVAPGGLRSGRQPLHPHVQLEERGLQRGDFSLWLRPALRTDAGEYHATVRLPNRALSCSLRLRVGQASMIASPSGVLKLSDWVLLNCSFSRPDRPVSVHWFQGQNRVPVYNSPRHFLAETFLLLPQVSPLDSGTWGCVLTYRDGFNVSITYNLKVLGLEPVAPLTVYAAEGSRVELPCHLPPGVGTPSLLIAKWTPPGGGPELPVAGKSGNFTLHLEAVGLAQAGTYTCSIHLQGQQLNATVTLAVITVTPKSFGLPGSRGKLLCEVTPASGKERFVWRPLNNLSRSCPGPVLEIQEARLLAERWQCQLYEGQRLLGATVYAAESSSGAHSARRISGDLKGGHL

[7] = biological target: T1, recombinant human LAG3 Fc Chimera …; test: SPR, captured aVH-Fc, LAG3 Fc analyte
[8] = biological target: T2, soluble human Lag3-IgG1-Fc with …; test: SPR, LAG3-Fc immobilised
[9] = biological target: T2, soluble human Lag3-IgG1-Fc with …; test: ELISA, supernatant on biotinylated antigen
[10] = biological target: T5, human FAP avi his, biotinylated (human, UniProt Q12884 27-759, biotin on the avi-tag); test: SPR, purified aVH, FAP immobilised
T5 construct: also called huFAP

[11] = biological target: T5, human FAP avi his, biotinylated; test: SPR, bacterial supernatant;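 also: SPR at 25 °C with biotinylated human or murine FAP captured via neutravidin, aVH-containing bacterial supernatants diluted 1:3 as analyte, 600 s dissociation, blank supernatant without aVH as reference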
[12] = biological target: T6, murine FAP avi his, biotinylated (murine, UniProt P97321 27-761, biotin on the avi-tag); test: SPR, bacterial supernatant;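 also: SPR at 25 °C with biotinylated human or murine FAP captured via neutravidin, aVH-containing bacterial supernatants diluted 1:3 as analyte, 600 s dissociation, blank supernatant without aVH as reference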
T6 construct: also called muFAP; mu FAP

[13] = biological target: T6, murine FAP avi his, biotinylated; test: SPR, purified aVH, FAP immobilised

koff [1]: 0.00039 s⁻¹
t½ [1]: 30 min
IC50 [2]: 0.127 µg/mL and 0.8 nM
% Inhibition [3]: 90.4%
EC50 [4]: 0.0031 µg/mL and 0.02 nM
OD max [4]: 3.39
OD max [5]: 2.06
B1: MDX 25F7 (antibody, V domains shown)
VH: QVQLQQWGAGLLKPSETLSLTCAVYGGSFSDYYWNWIRQPPGKGLEWIGEINHNGNTNSNPSLKSRVTLSLDTSKNQFSLKLRSVTAADTAVYYCAFGYSDYEYNWFDPWGQGTLVTVSS
VL: EIVLTQSPATLSLSPGERATLSCRASQSISSYLAWYQQKPGQAPRLLIYDASNRATGIPARFSGSGSGTDFTLTISSLEPEDFAVYYCQQRSNWPLTFGQGTNLEIK

IC50 [2]: 0.0762 µg/mL and 1 nM
binding result [6]: no binding
% Inhibition [3]: 95.5%
koff [7]: 0.00019 s⁻¹
t½ [7]: 61.1 min
EC50 [4]: 0.0194 µg/mL and 0.3 nM
OD max [4]: 1.2
EC50 [5]: 0.0288 µg/mL and 0.4 nM
OD max [5]: 1.3
B2: 9B4 aVH-Fc, bivalent (PG-LALA) (Fc fusion)
chain: EVQLVESGGGLVQPGGSLRLSCAASGFNIKDTCIGWVRRAPGKGTELVAEICQDIGYTRYADSVKGRFTISADTSKNTAYLQMNSLRAEDTAVYYCAAVEVAEYFEYWGQGTTVTVSS
notes: not shown: linker and human IgG1 Fc (PG-LALA)

Kd [8]: 86 nM
koff [8]: 0.00314 s⁻¹
kon [8]: 36500 M⁻¹ s⁻¹
B3: LAG3 9B4 aVH (VHH)
VHH: B2 chain

binding result [9]: binds
B4: SEQ ID NO 79 (VHH)
VHH: B2 chain with V99D, V101S, A102V, E103D, Y104N, E106K
notes: also called LAG3-specific aVH

binding result [9]: binds
B5: SEQ ID NO 95 (VHH)
VHH: B2 chain with D31Y, T32Q, Q53S, D54Y, I55D, V99E, V101S, A102V, Y104G, E106I
notes: also called LAG3-specific aVH

binding result [9]: binds
B6: SEQ ID NO 83 (VHH)
VHH: B2 chain with Q53E, V99N, V101H, A102S, E103V, Y104G, E106N
notes: also called LAG3-specific aVH

binding result [9]: binds
B7: SEQ ID NO 91 (VHH)
VHH: B2 chain with Q53H, V99E, V101H, A102V, E103A, Y104S
notes: also called LAG3-specific aVH

binding result [9]: binds
B8: SEQ ID NO 97 (VHH)
VHH: B2 chain with Q53D, A98S, V99Q, V101H, A102Q, E103W, Y104S, E106K
notes: also called LAG3-specific aVH

binding result [9]: binds
B9: SEQ ID NO 77 (VHH)
VHH: B2 chain with Q53T, V99G, V101G, A102S, E103S, Y104G, E106H
notes: also called LAG3-specific aVH

Kd [8]: 27 nM
koff [8]: 0.00383 s⁻¹
kon [8]: 144000 M⁻¹ s⁻¹
B10: LAG3 P10D1 aVH (VHH)
VHH: B2 chain with N28S, G35A, Q53E, V99K, V101A, A102G, E103V, Y104G, E106D
notes: also called P110D1

binding result [9]: binds
B11: SEQ ID NO 85 (VHH)
VHH: B2 chain with A98G, V99E, V101G, E103T, Y104N, E106K
notes: also called LAG3-specific aVH

binding result [9]: binds
B12: SEQ ID NO 89 (VHH)
VHH: B2 chain with Q53T, I55A, V99S, V101S, A102P, E103S, Y104G, E106R
notes: also called LAG3-specific aVH

IC50 [2]: 0.0933 µg/mL and 1.2 nM
binding result [6]: no binding
% Inhibition [3]: 93.4%
koff [7]: 0.00011 s⁻¹
t½ [7]: 102 min
EC50 [4]: 0.113 µg/mL and 1.5 nM
OD max [4]: 0.9
EC50 [5]: 0.029 µg/mL and 0.4 nM
OD max [5]: 1.2
B13: P10D1 aVH-Fc, bivalent (PG-LALA) (Fc fusion)
chain: B2 chain with N28S, G35A, Q53E, V99K, V101A, A102G, E103V, Y104G, E106D
notes: as for B2

Kd [10]: 0.846 nM
koff [10]: 0.00046 s⁻¹
kon [10]: 552000 M⁻¹ s⁻¹
koff [11]: 0.00107 s⁻¹
koff [12]: 0.0255 s⁻¹
B14: anti-FAP aVH P034.090 (VHH)
VHH: EVQLVESGGGLVQPGGSLRLSCAASGFNIKDTCIGWVRRAPGKEEELVANICSSYGHTRYADSVKGRFTISADTSKNTAYLQMNSLRAEDTAVYYCASSYTIYRYSYWGQGTTVTVSS

Kd [10]: 1.15 nM
koff [10]: 0.00133 s⁻¹
kon [10]: 1.15e+06 M⁻¹ s⁻¹
Kd [13]: 24.5 nM
koff [13]: 0.00784 s⁻¹
kon [13]: 320000 M⁻¹ s⁻¹
koff [11]: 0.00542 s⁻¹
koff [12]: 0.0157 s⁻¹
B15: anti-FAP aVH P047.001 (VHH)
VHH: B14 VHH with S53G, S54K, Y55I, H57I, S98N, Y103V, S106D

Kd [8]: 55 nM
koff [8]: 0.0138 s⁻¹
kon [8]: 251000 M⁻¹ s⁻¹
B16: LAG3 P11A2 aVH (VHH)
VHH: EVQLVESGGGLVQPGGSLRLSCAASSFNIKDTYIGWVRRAPGKGTELVAEIACHEGTTRYADSVKGRFTISCDTSKNTAYLQMNSLRAEDTAVYYCANTEYDDIFDYWGQGTTVTVSS

Kd [13]: 23 nM
koff [13]: 0.00102 s⁻¹
kon [13]: 51000 M⁻¹ s⁻¹
koff [11]: 0.00508 s⁻¹
koff [12]: 0.00207 s⁻¹
B17: anti-FAP aVH P049.004 (VHH)
VHH: EVQLVESGGGLVQPGGSLRLSCAASSFNIKDTYIGWVRRAPGKEEELVANIYCNYGYTRYADSVKGRFTISCDTSKNTAYLQMNSLRAEDTAVYYCATSHTRYHYKYWGQGTTVTVSS
